Measurements taken from US20040253222A1.

Target: complement receptor type 3 (CR3), heterodimer of CD11b and CD18 (human) (UniProt P11215)
Test: cell-based or functional assay

| Substance | invasion inhibition of endo- and ectocervical cells (gentamicin-resistance assay) [%] | invasion inhibition, ectocervical cells (gentamicin-resistance assay) [%] | invasion inhibition, endocervical cells (gentamicin-resistance assay) [%] |
| --- | --- | --- | --- |
| Bear1 anti-CD11b antibody (Immunotech) | > 93 |  |  |
| H5A4 anti-CD11b monoclonal antibody (Developmental Studies Hybridoma Bank) | > 93 | 100 | 99.9 |
| IB4 anti-CD18 antibody | > 93 |  |  |
